Experimental data from article PMC3206844.

Tests used:
[1] = target: Visinin-like Protein 1 (VILIP-1), unmyristoylated (human) (UniProt P62760); test: small-angle X-ray scattering (SAXS); 12 mg/mL (542 uM) VILIP-1, 100 mM NaCl, 5 mM CaCl2, 2.5 mM DTT, 20 mM HEPES pH 7.5, 20 °C; mass from forward scattering, ab initio shape
[2] = target: Visinin-like Protein 1 (VILIP-1), unmyristoylated (human) (UniProt P62760); test: SEC; Sephadex 200 column, 100 mM NaCl, 20 mM HEPES pH 7.5, 0.5 mL/min; samples with 0.1 mM EDTA or 5 mM CaCl2, non-reduced or reduced with 2.5 mM DTT; monomer and dimer peaks

- stoichiometry N [1]: 2
- stoichiometry N [2]: 2
Substance: Visinin-like Protein 1 (VILIP-1), unmyristoylated (from UniProt P62760 1-191) (natural protein)
